According to patent US20190169308A1 (ALLIGATOR BIOSCIENCE, published 2019):
Substitutions are numbered along the chain they refer to.

T1: recombinant human OX40 (R&D #1493-CD) (human, UniProt P43489 29-216, limits assumed)
T1 sequence (looked up): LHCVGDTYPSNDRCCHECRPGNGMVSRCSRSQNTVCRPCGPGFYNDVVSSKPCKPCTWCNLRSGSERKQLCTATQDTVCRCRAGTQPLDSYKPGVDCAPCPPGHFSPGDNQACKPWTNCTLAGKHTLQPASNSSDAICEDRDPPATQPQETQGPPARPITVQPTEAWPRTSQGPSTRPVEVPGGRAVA

B1: 1204/1205 (antibody, V domains shown)
VH: EVQLLESGGGLVQPGGSLRLSCAASGFTFSSYYMGWVRQAPGKGLEWVSGIGSYYGYTGYADSVKGRFTISRDNSKNTLYLQMNSLRAEDTAVYYCARAYYDYNYYYAYFDYWGQGTLVTVSS
VL: DIQMTQSPSSLSASVGDRVTITCRASQSISSYLNWYQQKPGKAPKLLIYAASSLQSGVPSRFSGSGSGTDFTLTISSLQPEDFATYYCQQSVPHYPFTFGQGTKLEIK
B2: 1626/1627 (antibody, V domains shown)
VH: EVQLLESGGGLVQPGGSLRLSCAASGFTFGGYSMYWVRQAPGKGLEWVSSIGGYYYSTYYADSVKGRFTISRDNSKNTLYLQMNSLRAEDTAVYYCARSYYGSIDYWGQGTLVTVSS
VL: B1 VL with S91G, V92T, P93G, H94Y, Y95G, F97L
B3: 1200/1201 (antibody, V domains shown)
VH: EVQLLESGGGLVQPGGSLRLSCAASGFTFSSYAMSWVRQAPGKGLEWVSGISGGGGGTYYADSVKGRFTISRDNSKNTLYLQMNSLRAEDTAVYYCARDVAYFDYWGQGTLVTVSS
VL: DIQMTQSPSSLSASVGDRVTITCRASQSISSYLNWYQQKPGKAPKLLIYAASSLQSGVPSRFSGSGSGTDFTLTISSLQPEDFATYYCQQYYIPHTFGQGTKLEIK
B4: 1620/1621 (antibody, V domains shown)
VH: EVQLLESGGGLVQPGGSLRLSCAASGFTFSGYYMYWVRQAPGKGLEWVSGISSSGSYTYYADSVKGRFTISRDNSKNTLYLQMNSLRAEDTAVYYCARSVGPYFDYWGQGTLVTVSS
VL: B3 VL with Y91G, Y92V, I93G, H95Y

molecular target: T2, CD40-Fc (Ancell #504-820) (human, UniProt P25942 21-193); assay: ELISA, coated CD40-Fc
T2 construct: not shown: Fc part, bought reagent, not described
T2 sequence (P25942 21-193 limits assumed): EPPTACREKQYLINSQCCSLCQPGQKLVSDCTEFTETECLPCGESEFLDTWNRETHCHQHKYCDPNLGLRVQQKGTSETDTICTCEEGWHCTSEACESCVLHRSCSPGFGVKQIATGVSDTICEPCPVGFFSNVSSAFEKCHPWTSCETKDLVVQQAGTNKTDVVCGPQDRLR
Procedure: (§1) ELISA plates (Greiner #655074) were coated with 50 μl/well of recombinant human OX40 (R&D #1493-CD), CD40-Fc (Ancell #504-820) or CD137 (R&D #838-4B) diluted to a final concentration of 0.5 μg/ml in PBS for 1h at 37° C. or overnight at 4° C. Plates were washed with PBS+0.05% TWEEN20 (PBST), followed by block with PBST+1% bovine serum albumin (BSA). Antibody samples were prepared as serial 1/10 dilutions from 10-0.01 μg/ml in PBST+1% BSA and incubated for 1 h in room temperature, followed by detection using a horse radish peroxidase-conjugated anti-human kappa light chain antibody (AbD Serotec #STAR127P) and developed using SuperSignal ELISA Pico Chemiluminescent substrate (Pierce ThermoScientific #37069).

| Binder | binding result |
| --- | --- |
| B1 | no binding (tested: 10 µg/ml) |
| B2 | no binding (tested: 10 µg/ml) |
| B3 | no binding (tested: 10 µg/ml) |
| B4 | no binding (tested: 10 µg/ml) |

molecular target: T3, human/mouse CD137 chimera 1555; assay: flow cytometry, 293-F cells with CD137 chimera
T3 construct: on transfected FreeStyle 293-F cells
Procedure: (§2) The ability of each antibody to bind to a panel of human/mouse CD137 chimeras expressed on the surface of transfected cells was analyzed by flow cytometry.
(§3) The chimeras were designed by exchanging domains or modules of the human CD137 with the corresponding mouse domain (FIG. 7). Genes of CD137 human/mouse chimeras were synthesized (GenScript) and constructs cloned into pcDNA3.1 vector (Invitrogen) and transiently transfected into FreeStyle 293-F cells (Invitrogen). The transfected cells were incubated with CD137 antibodies and control antibodies, followed by incubation with anti-human IgG-PE (Jackson Immunoresearch) for detection and analyzed with FACS Verse (BD Biosciences). Binding to the different chimeric constructs was calculated as relative MFI compared to the binding of the isotype control, followed by normalization to the full-length human CD137 construct to minimize the effect of affinity differences between individual antibodies.

| Binder | MFI/isotype control normalized to full-length human CD137 |
| --- | --- |
| B1 | 0.28 |
| B2 | 0.29 |
| B3 | 0.24 |
| B4 | 0.32 |

molecular target: T4, human/mouse CD137 chimera 1550; assay: flow cytometry, 293-F cells with CD137 chimera
T4 construct: on transfected FreeStyle 293-F cells
Procedure: as §2, §3

| Binder | MFI/isotype control normalized to full-length human CD137 |
| --- | --- |
| B1 | 0.07 |
| B2 | 0.1 |
| B3 | 0.05 |
| B4 | 0.17 |

molecular target: T5, human/mouse CD137 chimera 1554; assay: flow cytometry, 293-F cells with CD137 chimera
T5 construct: on transfected FreeStyle 293-F cells
Procedure: as §2, §3

| Binder | MFI/isotype control normalized to full-length human CD137 |
| --- | --- |
| B1 | 0.73 |
| B2 | 0.12 |
| B3 | 0.84 |
| B4 | 0.17 |

molecular target: T6, human/mouse CD137 chimera 1551; assay: flow cytometry, 293-F cells with CD137 chimera
T6 construct: on transfected FreeStyle 293-F cells
Procedure: as §2, §3

| Binder | MFI/isotype control normalized to full-length human CD137 |
| --- | --- |
| B1 | 0.11 |
| B2 | 0.11 |
| B3 | 0.04 |
| B4 | 0.33 |

molecular target: T7, human/mouse CD137 chimera 1552; assay: flow cytometry, 293-F cells with CD137 chimera
T7 construct: on transfected FreeStyle 293-F cells
Procedure: as §2, §3

| Binder | MFI/isotype control normalized to full-length human CD137 |
| --- | --- |
| B1 | 0.13 |
| B2 | 0.11 |
| B3 | 0.05 |
| B4 | 0.18 |

molecular target: T8, human/mouse CD137 chimera 1553; assay: flow cytometry, 293-F cells with CD137 chimera
T8 construct: on transfected FreeStyle 293-F cells
Procedure: as §2, §3

| Binder | MFI/isotype control normalized to full-length human CD137 |
| --- | --- |
| B1 | 0.85 |
| B2 | 0.14 |
| B3 | 0.65 |
| B4 | 0.17 |

molecular target: T9, recombinant human CD137-Fc (R&D #838-4B) (human, UniProt Q07011 24-186); assay: ELISA, coated CD137-Fc
T9 construct: bought; also called CD137 (R&D #838-4B); not shown: Fc part, bought reagent, not described
T9 sequence (Q07011 24-186 limits assumed): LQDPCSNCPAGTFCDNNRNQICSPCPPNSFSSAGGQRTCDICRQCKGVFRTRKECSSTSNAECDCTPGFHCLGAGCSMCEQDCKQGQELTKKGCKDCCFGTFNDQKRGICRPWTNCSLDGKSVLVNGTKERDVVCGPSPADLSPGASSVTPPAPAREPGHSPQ
Procedure: Binding of CD137 antibodies to recombinant human CD137 was determined by sandwich ELISA. Briefly, ELISA plates (Greiner #655074) coated with recombinant human CD137-Fc (R&D #838-4B) were incubated with serial dilutions of the various CD137 antibodies to be investigated. CD137 antibodies were detected using HRP-conjugated goat-anti-human kappa light chain (AbD Serotec #STAR127P) and developed with SuperSignal ELISA Pico Chemiluminescent substrate (Pierce #37069). EC50 values of the various antibodies were determined in 2-6 separate experiments.

| Binder | EC50 |
| --- | --- |
| B3 | 390 pM |

molecular target: T1, recombinant human OX40 (R&D #1493-CD); assay: ELISA, coated OX40
Procedure: as §1

| Binder | binding result |
| --- | --- |
| B1 | no binding (tested: 10 µg/ml) |
| B2 | no binding (tested: 10 µg/ml) |
| B3 | no binding (tested: 10 µg/ml) |
| B4 | no binding (tested: 10 µg/ml) |

molecular target: T10, human CD137 on transfected CHO cells (human, UniProt Q07011 24-186; P25942 194-277, limits assumed); assay: flow cytometry, CHO-huCD137; 95% CI of EC50
T10 construct: extracellular domain;domain: transmembrane and intracellular part; also called CHO-huCD137; CHOhCD137
T10 sequence (Q07011 other isoform, or with tags, fused parts or gaps limits assumed): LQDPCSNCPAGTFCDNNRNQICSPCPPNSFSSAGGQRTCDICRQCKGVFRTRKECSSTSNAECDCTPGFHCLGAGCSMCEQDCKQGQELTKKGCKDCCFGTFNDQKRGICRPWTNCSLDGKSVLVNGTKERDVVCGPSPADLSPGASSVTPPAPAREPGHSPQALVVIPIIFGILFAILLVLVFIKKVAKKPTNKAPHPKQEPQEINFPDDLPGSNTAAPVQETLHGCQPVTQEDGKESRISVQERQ
Procedure: Binding and EC50 was determined using flow cytometric analysis of CHO cells transfected with human CD137, cynomolgus CD137 or empty vector. The extracellular part of human or cynomolgus CD137 was fused to the transmembrane and intracellular part of human CD40 and cloned into pcDNA3.1. The vector was subsequently stably transfected into CHO cells. […] CD137-transfected and empty vector-transfected cells were incubated with CD137 antibodies for at least 1h at 4° C. to saturate the binding. In order to minimize antibody internalization, 0.05% sodium azide was used in the incubation buffer and all work was performed on ice. […] Directly after staining the cells were fixed with a paraformaldehyde solution (10x concentrate BD CellFIX, BD biosciences #340181). Cells were analyzed by flow cytometry using FACSVerse (BD Biosciences). The median fluorescence intensity (MFI) for each sample was determined and the dose response data was analysed using Graph Pad Prism.
MFI data was normalized for each antibody, where 0% is defined as the lowest value and 100% is the highest value in the dose titration for each antibody.

| Binder | EC50 |
| --- | --- |
| B3 | 0.2 to 0.36 µg/mL |

molecular target: T11, full-length human CD137 construct 1030 (human, UniProt Q07011 24-255); assay: flow cytometry, 293-F cells with full-length CD137 (reference of the normalization)
T11 construct: whole, on cells; on transfected FreeStyle 293-F cells; also called Full-length CD137
T11 sequence (Q07011 24-255): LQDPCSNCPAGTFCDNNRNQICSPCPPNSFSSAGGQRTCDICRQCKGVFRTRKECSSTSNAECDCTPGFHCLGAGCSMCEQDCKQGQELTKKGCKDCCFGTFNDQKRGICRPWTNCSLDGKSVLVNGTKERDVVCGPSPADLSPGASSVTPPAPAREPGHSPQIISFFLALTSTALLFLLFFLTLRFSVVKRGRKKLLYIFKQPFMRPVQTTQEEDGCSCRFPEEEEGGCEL
Procedure: as §2, §3

| Binder | MFI/isotype control normalized to full-length human CD137 |
| --- | --- |
| B3 | 1 |
